# Measured values from publication PMC9482650, “Quantitative fragmentomics allow affinity mapping of interactomes” (Nature Communications, 2022).
# T1: APBA3_1, O96018
# T1 sequence (O96018 389-490, limits assumed, looked up): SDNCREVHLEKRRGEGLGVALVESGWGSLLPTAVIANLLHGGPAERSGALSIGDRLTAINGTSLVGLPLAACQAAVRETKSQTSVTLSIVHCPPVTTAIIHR
# T2: SNTB1, Q13884
# T2 sequence (Q13884 107-205, limits assumed, looked up): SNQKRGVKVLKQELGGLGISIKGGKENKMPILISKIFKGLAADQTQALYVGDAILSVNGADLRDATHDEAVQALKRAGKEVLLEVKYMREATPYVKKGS
# T3: HTRA3, P83110
# T3 sequence (P83110 354-453, limits assumed, looked up): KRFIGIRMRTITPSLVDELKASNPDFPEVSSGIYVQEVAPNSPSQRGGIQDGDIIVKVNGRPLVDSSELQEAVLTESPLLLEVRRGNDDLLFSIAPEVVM
# T4: CARD11, Q9BXL7
# T4 sequence (Q9BXL7 662-765, limits assumed, looked up): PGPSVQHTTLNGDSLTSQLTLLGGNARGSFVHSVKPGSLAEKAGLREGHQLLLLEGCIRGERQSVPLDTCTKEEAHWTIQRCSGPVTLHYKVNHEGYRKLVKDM
# T5: MPP7, Q5T2T1
# T5 sequence (Q5T2T1 134-230, limits assumed, looked up): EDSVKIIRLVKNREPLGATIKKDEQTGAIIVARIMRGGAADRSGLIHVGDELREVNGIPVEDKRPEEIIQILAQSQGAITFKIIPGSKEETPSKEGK
# T6: DVL3, Q92997
# T6 sequence (Q92997 244-331, limits assumed, looked up): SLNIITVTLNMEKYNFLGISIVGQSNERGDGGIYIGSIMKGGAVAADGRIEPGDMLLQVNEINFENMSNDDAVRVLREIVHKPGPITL
# T7: GRIP1_5, Q9Y3R0
# T7 sequence (Q9Y3R0 568-668, limits assumed, looked up): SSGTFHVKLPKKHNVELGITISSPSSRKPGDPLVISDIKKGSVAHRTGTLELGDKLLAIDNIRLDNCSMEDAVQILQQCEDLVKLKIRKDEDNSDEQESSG
# T8: LRRC7, Q96NW7
# T8 sequence (Q96NW7 1440-1537, limits assumed, looked up): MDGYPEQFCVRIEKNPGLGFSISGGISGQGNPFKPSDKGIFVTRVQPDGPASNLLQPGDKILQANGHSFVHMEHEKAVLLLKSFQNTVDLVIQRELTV
# T9: LNX2_3, Q8N448
# T9 sequence (Q8N448 463-564, limits assumed, looked up): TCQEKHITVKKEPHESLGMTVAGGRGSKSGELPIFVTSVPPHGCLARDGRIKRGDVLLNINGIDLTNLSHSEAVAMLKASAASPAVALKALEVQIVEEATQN
# T10: TJP3_3, O95049
# T10 sequence (O95049 375-456, limits assumed, looked up): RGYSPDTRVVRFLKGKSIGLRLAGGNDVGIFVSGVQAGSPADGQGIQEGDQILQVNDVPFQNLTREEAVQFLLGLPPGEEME
# Experiments:
# Assay in all cases: holdup assay
# Parameters in all cases: key: below the threshold = too weak to quantify, mostly under pKd 3.1 to 4
# [1] = target: FRMPD3, Q5JV73
# [2] = target: PDZRN4_1, Q6ZMN7
# [3] = target: DLG2_2, Q15700
# [4] = target: T1, APBA3_1, O96018
# [5] = target: LNX1_1, Q8TBB1
# [6] = target: HTRA2, O43464
# [7] = target: T2, SNTB1, Q13884
# [8] = target: GRIP2_4, Q9C0E4
# [9] = target: T3, HTRA3, P83110
# [10] = target: GORASP2, Q9H8Y8
# [11] = target: T4, CARD11, Q9BXL7
# [12] = target: DLG4_3, P78352
# [13] = target: TJP1_3, Q07157
# [14] = target: T5, MPP7, Q5T2T1
# [15] = target: NHERF4_1, Q86UT5-2
# [16] = target: T6, DVL3, Q92997
# [17] = target: LNX1_2, Q8TBB1
# [18] = target: GRIP2_6, Q9C0E4
# [19] = target: LAP2, Q96RT1
# [20] = target: T7, GRIP1_5, Q9Y3R0
# [21] = target: HTRA1, Q92743
# [22] = target: T8, LRRC7, Q96NW7
# [23] = target: MAGI3_2, Q5TCQ9
# [24] = target: GOPC, Q9HD26
# [25] = target: T9, LNX2_3, Q8N448
# [26] = target: T10, TJP3_3, O95049
# [27] = target: Inadl_6, Q8NI35
# [28] = plain residues with an end cap or a label only (N-terminal biotin on a linker: ado-ado)
# [29] = plain residues with an end cap or a label only (N-terminal biotin on a linker: ttds)
# NHERF4_1, Q86UT5-2, sequence (Q86UT5 other isoform, or with tags, fused parts or gaps): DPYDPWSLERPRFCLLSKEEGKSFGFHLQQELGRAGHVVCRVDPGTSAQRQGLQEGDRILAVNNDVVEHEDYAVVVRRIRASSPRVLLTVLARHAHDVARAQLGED
# Inadl_6, Q8NI35, sequence (Q8NI35 1058-1167): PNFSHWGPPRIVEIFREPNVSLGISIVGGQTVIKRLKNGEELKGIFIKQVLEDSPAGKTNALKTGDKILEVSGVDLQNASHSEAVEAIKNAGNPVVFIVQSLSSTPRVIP
# DLG4_3, P78352, sequence (P78352 306-403): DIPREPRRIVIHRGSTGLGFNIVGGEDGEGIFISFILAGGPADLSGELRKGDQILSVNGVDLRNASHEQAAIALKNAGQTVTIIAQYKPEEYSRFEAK
# LAP2, Q96RT1, sequence (Q96RT1 other isoform, or with tags, fused parts or gaps): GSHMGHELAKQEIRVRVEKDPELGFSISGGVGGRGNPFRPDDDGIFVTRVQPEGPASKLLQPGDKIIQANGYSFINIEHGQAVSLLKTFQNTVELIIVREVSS
# GRIP2_6, Q9C0E4, sequence (Q9C0E4 648-740): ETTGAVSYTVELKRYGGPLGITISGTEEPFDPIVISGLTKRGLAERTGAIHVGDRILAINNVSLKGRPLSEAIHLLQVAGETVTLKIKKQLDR
# HTRA2, O43464, sequence (O43464 355-458): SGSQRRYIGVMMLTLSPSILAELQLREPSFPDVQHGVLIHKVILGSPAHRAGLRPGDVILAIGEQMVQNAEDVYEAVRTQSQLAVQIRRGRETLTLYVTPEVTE
# MAGI3_2, Q5TCQ9, sequence (Q5TCQ9 398-503): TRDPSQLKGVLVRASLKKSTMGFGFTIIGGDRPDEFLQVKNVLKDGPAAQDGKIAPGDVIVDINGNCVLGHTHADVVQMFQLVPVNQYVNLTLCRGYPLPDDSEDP
# HTRA1, Q92743, sequence (Q92743 360-477): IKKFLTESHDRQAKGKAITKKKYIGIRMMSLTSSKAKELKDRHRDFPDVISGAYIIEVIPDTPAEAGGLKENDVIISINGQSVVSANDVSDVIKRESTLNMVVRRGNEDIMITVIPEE
# LNX1_2, Q8TBB1, sequence (Q8TBB1 371-470): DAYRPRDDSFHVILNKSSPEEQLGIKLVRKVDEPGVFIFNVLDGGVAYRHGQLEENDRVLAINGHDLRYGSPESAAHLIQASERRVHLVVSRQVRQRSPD
# FRMPD3, Q5JV73, sequence (Q5JV73 12-100): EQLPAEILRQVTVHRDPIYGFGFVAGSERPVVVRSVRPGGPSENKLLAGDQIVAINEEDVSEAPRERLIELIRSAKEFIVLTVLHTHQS
# DLG2_2, Q15700, sequence (Q15700 189-283): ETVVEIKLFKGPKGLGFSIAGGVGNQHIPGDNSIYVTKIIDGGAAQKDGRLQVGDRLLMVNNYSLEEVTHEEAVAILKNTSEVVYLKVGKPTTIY
# TJP1_3, Q07157, sequence (Q07157 416-512): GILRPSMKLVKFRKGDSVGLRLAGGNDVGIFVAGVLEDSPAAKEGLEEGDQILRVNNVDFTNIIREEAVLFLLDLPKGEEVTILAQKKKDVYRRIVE
# PDZRN4_1, Q6ZMN7, sequence (Q6ZMN7 213-318): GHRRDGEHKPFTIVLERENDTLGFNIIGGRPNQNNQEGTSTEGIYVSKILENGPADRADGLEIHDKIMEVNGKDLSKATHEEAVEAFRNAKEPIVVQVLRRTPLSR
# LNX1_1, Q8TBB1, sequence (Q8TBB1 261-371): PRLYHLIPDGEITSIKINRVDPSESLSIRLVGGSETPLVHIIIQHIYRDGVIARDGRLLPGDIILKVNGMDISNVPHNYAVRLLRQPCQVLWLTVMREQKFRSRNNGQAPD
# GRIP2_4, Q9C0E4, sequence (Q9C0E4 446-548): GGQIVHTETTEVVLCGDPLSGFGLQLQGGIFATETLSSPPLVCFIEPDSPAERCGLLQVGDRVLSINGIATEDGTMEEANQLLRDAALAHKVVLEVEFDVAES
binder,measurement,setting,value
"FVHPILQSAV [PRKCA, P17252]",pKd,[1]; [28],below the threshold
same,pKd,[2]; [28],3.92
same,pKd,[3]; [28],4.04
same,pKd,[4]; [28],below the threshold
same,pKd,[5]; [28],4.02
same,pKd,[6]; [28],below the threshold
same,pKd,[7]; [28],4.32
same,pKd,[8]; [28],below the threshold
same,pKd,[9]; [28],below the threshold
same,pKd,[10]; [28],below the threshold
same,pKd,[11]; [28],below the threshold
same,pKd,[12]; [28],3.88
same,pKd,[13]; [28],below the threshold
same,pKd,[14]; [28],below the threshold
same,pKd,[15]; [28],3.78
same,pKd,[16]; [28],below the threshold
same,pKd,[17]; [28],below the threshold
same,pKd,[18]; [28],below the threshold
same,pKd,[19]; [28],4.13
same,pKd,[20]; [28],below the threshold
same,pKd,[21]; [28],below the threshold
same,pKd,[22]; [28],3.58
same,pKd,[23]; [28],4.32
same,pKd,[24]; [28],4
same,pKd,[25]; [28],below the threshold
same,pKd,[26]; [28],below the threshold
same,pKd,[27]; [28],below the threshold
"LCALPKVTTV [AGMAT, Q9BSE5]",pKd,[1]; [29],below the threshold
same,pKd,[2]; [29],3.75
same,pKd,[3]; [29],5.35
same,pKd,[4]; [29],below the threshold
same,pKd,[5]; [29],3.98
same,pKd,[6]; [29],3.8
same,pKd,[7]; [29],4.73
same,pKd,[8]; [29],below the threshold
same,pKd,[9]; [29],3.71
same,pKd,[10]; [29],5.18
same,pKd,[11]; [29],below the threshold
same,pKd,[12]; [29],4.23
same,pKd,[13]; [29],below the threshold
same,pKd,[14]; [29],below the threshold
same,pKd,[15]; [29],below the threshold
same,pKd,[16]; [29],below the threshold
same,pKd,[17]; [29],4.42
same,pKd,[18]; [29],below the threshold
same,pKd,[19]; [29],3.61
same,pKd,[20]; [29],below the threshold
same,pKd,[21]; [29],4.75
same,pKd,[22]; [29],3.63
same,pKd,[23]; [29],4.82
same,pKd,[24]; [29],3.78
same,pKd,[25]; [29],below the threshold
same,pKd,[26]; [29],below the threshold
same,pKd,[27]; [29],3.88
"TETASVCTKV [SLC23A1, Q9UHI7]",pKd,[1]; [28],below the threshold
same,pKd,[2]; [28],below the threshold
same,pKd,[3]; [28],3.99
same,pKd,[4]; [28],below the threshold
same,pKd,[5]; [28],3.73
same,pKd,[6]; [28],below the threshold
same,pKd,[7]; [28],4.17
same,pKd,[8]; [28],below the threshold
same,pKd,[9]; [28],below the threshold
same,pKd,[10]; [28],4.17
same,pKd,[11]; [28],below the threshold
same,pKd,[12]; [28],below the threshold
same,pKd,[13]; [28],below the threshold
same,pKd,[14]; [28],below the threshold
same,pKd,[15]; [28],4.53
same,pKd,[16]; [28],below the threshold
same,pKd,[17]; [28],below the threshold
same,pKd,[18]; [28],below the threshold
same,pKd,[19]; [28],3.74
same,pKd,[20]; [28],below the threshold
same,pKd,[21]; [28],3.73
same,pKd,[22]; [28],below the threshold
same,pKd,[23]; [28],4.18
same,pKd,[24]; [28],4.17
same,pKd,[25]; [28],below the threshold
same,pKd,[26]; [28],below the threshold
same,pKd,[27]; [28],below the threshold
"DPRNTQTSQI [ABRAXAS2, Q15018]",pKd,[1]; [29],below the threshold
same,pKd,[2]; [29],3.56
same,pKd,[3]; [29],below the threshold
same,pKd,[4]; [29],below the threshold
same,pKd,[5]; [29],below the threshold
same,pKd,[6]; [29],below the threshold
same,pKd,[7]; [29],3.96
same,pKd,[8]; [29],below the threshold
same,pKd,[9]; [29],below the threshold
same,pKd,[10]; [29],below the threshold
same,pKd,[11]; [29],below the threshold
same,pKd,[12]; [29],below the threshold
same,pKd,[13]; [29],below the threshold
same,pKd,[14]; [29],below the threshold
same,pKd,[15]; [29],below the threshold
same,pKd,[16]; [29],below the threshold
same,pKd,[17]; [29],below the threshold
same,pKd,[18]; [29],below the threshold
same,pKd,[19]; [29],3.53
same,pKd,[20]; [29],3.66
same,pKd,[21]; [29],3.64
same,pKd,[22]; [29],below the threshold
same,pKd,[23]; [29],below the threshold
same,pKd,[24]; [29],4.13
same,pKd,[25]; [29],below the threshold
same,pKd,[26]; [29],below the threshold
same,pKd,[27]; [29],below the threshold
